In the supplement of paper PMC10567573:
± gives the standard deviation.

Assay: protein stability index of a GFP-peptide fusion (GPS, HEK-293T) (PSI 1-6); higher = more stable
[1] = treatment: DMSO, c terminus: a fixed tail appended
[2] = treatment: MLN4924 1 uM, 8 h, c terminus: a fixed tail appended
[3] = treatment: DMSO, c terminus: native
[4] = treatment: MLN4924 1 uM, 8 h, c terminus: native
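Also: 24-mer peptide tiles fused after GFP, lentivirally expressed, FACS-sorted into six equal bins by GFP/DsRed ratio, decoded by Illumina sequencing, PSI is the read-weighted mean bin number.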

Sequence | protein stability index [1] | protein stability index [2] | protein stability index [3] | protein stability index [4]
KRANAAFLIGAYAVIYLKKTPEEA [CDC14A] | 2.38 ± 0.57 | 2.21 ± 0.22 |  | 
KRASAPTFDNDYSLSELLSQLDSG [RIPK4] | 3.75 ± 0.37 | 3.56 ± 0.15 |  | 
KRKVDTGGFLSESKDCKPPVYLLL [MYBL2] | 2.01 ± 0.51 | 2.61 ± 0.72 |  | 
KRLCGLKVEVDMEKIAAEIAQAEE [SMARCE1] | 2.25 ± 0.12 | 3.63 ± 0.37 |  | 
KRMSELCIDFNKNLNEDDTFLVFS | 2.08 ± 0.25 | 2.58 ± 0.11 |  | 
KRSVYIDARDEELEKDTMDNWDEK [ZC3H15] | 4.98 ± 0.31 | 4.88 ± 0.24 |  | 
KSKASFLLLASGLVITDFFGHLIN [PTGFR] | 3.11 ± 0.27 | 2.88 ± 0.57 |  | 
KSNGRGGSQAGGSGSAGQYGSDQQ [MYOZ1] | 5.49 ± 0.23 | 5.4 ± 0.14 |  | 
KSSTVGLVTLNDMKAKQEALVKER [FAM50A] | 4.69 ± 0.31 | 4.45 ± 0.39 |  | 
KTCSRVDHCAQQDHGCEQLCLNTE [MATN2] | 4.77 ± 0.19 | 4.77 ± 0.21 |  | 
KVLNMWCCCFFKRRKRKTIQRHK [CSNK1G3] |  |  | 2.56 ± 0.16 | 2.86 ± 0.22
KVLTEPEVRYYLRQIVSGLKYLHE [PLK2] | 3.19 ± 0.29 | 2.42 ± 0.33 |  | 
KVVLSDAYAHPQQKVAVYRALQAA [TRADD] | 2.9 ± 0.41 | 3.24 ± 0.25 |  | 
KWLSCGFMLEIVTPTSLSSLSNAV [FBXO33] | 3.04 ± 0.57 | 3.57 ± 0.76 |  | 
KYKRRRFQKTKNLLTGETEADPEM [CLPTM1] | 4.83 ± 0.28 | 4.57 ± 0.4 |  | 
LANACLPVRTTNKISKQFVAPADV [ZSWIM9] | 3.27 ± 0.2 | 3.5 ± 0.21 |  | 
LANGRALSAGSPPVPPGWNPNSSS [DLX1] | 3.93 ± 0.22 | 4 ± 0.29 |  | 
LANNQCMATESVDHELGRCTDSVV [EHMT1] | 4.74 ± 0.093 | 4.71 ± 0.074 |  | 
LAQFPNTLLGNPKKRMRYFDPLRN [KCNA1] | 2.45 ± 0.12 | 2.48 ± 0.12 |  | 
LAWASYDQTGKEVADRWYSEIKNY [GLIPR2] | 2.87 ± 0.5 | 3.05 ± 0.23 |  | 
LAWRIVNDTYRTDLCLLYPPFMIA [CCNC] | 2.86 ± 0.49 | 3.34 ± 0.71 |  | 
LCKATSPADALQYLLQFARKPVEA [INTS4] | 2.05 ± 0.28 | 2.12 ± 0.29 |  | 
LCKLFPFLQKSSVGITVLNLCALS [EDNRA] | 2.47 ± 0.18 | 2.72 ± 0.57 |  | 

Sequence | protein stability index [1] | protein stability index [2] | protein stability index [3] | protein stability index [4]
LDKSTKLVETAIQSLDEPGGATFL [TRIM63] | 4.13 ± 0.29 | 4.17 ± 0.28 |  | 
LDREIRLQRLSHSGSRVRVGFRLC [SCNN1D] | 2.39 ± 0.17 | 2.48 ± 0.16 |  | 
LDRERAAANEQLTRAILRERICSE [CHCHD3] | 4.14 ± 0.23 | 4.1 ± 0.42 |  | 
LDSEIKKNSDGMEAAGVQIQMVNE [CD207] | 5.41 ± 0.59 | 5.22 ± 0.35 |  | 
LDVECHEKEKHVNQLQTKVAVLEQ [SASS6] | 5.03 ± 0.11 | 5.07 ± 0.21 |  | 
LECEINTYRSLLESEDCKLPCNPC [KRT34] | 3.81 ± 0.16 | 3.94 ± 0.35 |  | 
LEDVERELDGPKQIFFGRRKDMIA [ZNF396] | 3.98 ± 0.3 | 4 ± 0.15 |  | 
LEEAEGAVGYQPEYSKFCRMSYQD [NFE2L1] | 3.56 ± 0.4 | 3.05 ± 0.31 |  | 
LEEEEEEEEEAEDEEVVATAGDRL [IRX6] | 5.71 ± 0.27 | 5.46 ± 0.32 |  | 
LEKVECTPSQEHLKHQTVYRLLKC [FEM1A] | 2.85 ± 0.26 | 3.07 ± 0.38 |  | 
LEQPFLSVFKKGRRRVPVRNLGKV [PLEKHN1] | 3.19 ± 0.31 | 3.56 ± 0.58 |  | 
LEVEREAEKKREAKQRAKEAQERE [LRRC59] | 5.45 ± 0.42 | 5.63 ± 0.19 |  | 
LEVMEEEELANLRASQREYEELRN [RSPH3] | 5.22 ± 0.43 | 5.09 ± 0.18 |  | 
LEYRFYEQLGSGDGIPQVYYFGPC [CSNK1G3] | 2.19 ± 0.29 | 2.13 ± 0.2 |  | 
LFDTKHDVYSFAIVIWGVLTQKKP [RIPK4] | 2.49 ± 0.56 | 2.72 ± 0.17 |  | 
LFLDLLQSYKDLCERHEKGVLHKH [SNX8] | 2.49 ± 0.12 | 2.64 ± 0.37 |  | 
LFSNSDHQRDGTLGALHTSSKPTA [SASS6] | 4.36 ± 0.27 | 4.51 ± 0.065 |  | 
LGALHTSSKPTALPSASSAYFPGQ [SASS6] | 3.59 ± 0.29 | 3.67 ± 0.45 |  | 
LGAQTQFDVKNDRYIVNGSHEANK [EIF5] | 4.8 ± 0.3 | 4.77 ± 0.2 |  | 
LGDKGLSDTPYDSSASYEKENEMM [IKZF1] | 5.37 ± 0.14 | 5.26 ± 0.18 |  | 
LGFARRNWGNGKRPNLETYYERVL [GDAP1] | 2.38 ± 0.38 | 2.36 ± 0.57 |  | 
LGKIFDLIGLPPEDDWPRDVSLPR [CDK4] | 2.34 ± 0.5 | 2.42 ± 0.13 |  | 
LGNFKDDLLNVCMRHVEKMCKADL [TRIM29] | 2.36 ± 0.13 | 2.47 ± 0.19 |  | 

Sequence | protein stability index [1] | protein stability index [2] | protein stability index [3] | protein stability index [4]
LGQHMVEQLLARGYAVNVFDIQQG [NSDHL] | 2.72 ± 0.9 | 2.22 ± 0.57 |  | 
LGSAPLDQEPLLSIDLGTAHSAAV [NEK8] | 4.08 ± 0.22 | 4.11 ± 0.15 |  | 
LGSDDINVVTCAAGILSNLTCNNY [CTNNB1] | 2.27 ± 0.22 | 2.37 ± 0.22 |  | 
LHALKLRSPDASPSRAPPSTQEPQ [GNAS] | 4.54 ± 0.25 | 4.65 ± 0.1 |  | 
LHAWEMKPYAVMVFQTEQKNLFRL [N4BP2L1] | 2.44 ± 0.61 | 2.41 ± 0.41 |  | 
LILSREASWAKPHYEFNLSRMKFR [LCOR] | 2.27 ± 0.18 | 2.11 ± 0.28 |  | 
LKDEEGKLKDLSTVTSLQVPVLKP [PPP2R2C] | 4.91 ± 0.17 | 5.02 ± 0.085 |  | 
LKVRSHDPEEAIRHDVIVSIVTAA [PDS5B] | 2.43 ± 0.19 | 2.35 ± 0.27 |  | 
LLATRIAVYLMTFLIVTVAWAAHT [TMEM175] | 3.5 ± 0.17 | 3.12 ± 0.24 |  | 
LLDNPLCADVLFILQDQEHIFAHR [RHOBTB1] | 2.36 ± 0.35 | 2.17 ± 0.11 |  | 
LLEEEEKQWGPLEREPVRGQCLDS [RTN2] | 5.1 ± 0.3 | 5.26 ± 0.077 |  | 
LLKHPNIVRLHDSISEEGFHYLVF [CAMK2D] | 2.42 ± 0.32 | 2.2 ± 0.18 |  | 
LLLENGAGINTHSNEFKESALTLA [ANKRD17] | 2.32 ± 0.54 | 2.76 ± 0.6 |  | 
LLNTLSLAFVGGLPLAYQQTSAFA [TMEM175] | 3.2 ± 0.3 | 2.74 ± 0.42 |  | 
LLPESGIVADIELENVLDPDSFYE [TFE3] | 4.47 ± 0.3 | 4.76 ± 0.49 |  | 
LLQLPDTKVGSFMIRESETKKGFY [SLA] | 2.75 ± 0.25 | 2.95 ± 0.047 |  | 
LLRDPADASEAHESSSRGEAGAPG [CHGB] | 5.45 ± 0.28 | 5.34 ± 0.24 |  | 
LLRHRMNWLGRPSKVLSLQDLCCR [RAB40A] | 2.62 ± 0.27 | 2.71 ± 0.35 |  | 
LLTLLPQLQEAWQQRTPSPVPGG [RSAD1] |  |  | 3.3 ± 0.21 | 2.83 ± 0.54
LLWATNEFSLVNVNLQRFGMNGQM [ETS2] | 2.9 ± 0.64 | 2.94 ± 0.49 |  | 
LLYNRSNNKYSYTSNSDDNMLKNI [KCTD10] | 2.52 ± 0.28 | 2.74 ± 0.6 |  | 
LMQVHASRSNNMGIVGGFTQMIRE [SLC25A25] | 2.75 ± 0.21 | 2.94 ± 0.24 |  | 
LMRAQRNYMVQTEDQYIFIHDALL [PTPRD] | 2.48 ± 0.46 | 2.41 ± 0.53 |  | 

Sequence | protein stability index [1] | protein stability index [2] | protein stability index [3] | protein stability index [4]
LNEDTIQDVVQAADLLLLTDLKTL [GAN] | 3.03 ± 0.31 | 3.16 ± 0.44 |  | 
LNFQIEHHLFPTMPRHNYHKVAPL [FADS1] | 1.98 ± 0.33 | 2.02 ± 0.51 |  | 
LNGTKVAEGHKASFCLEDTECEGD [LOXL2] | 5.41 ± 0.33 | 5.59 ± 0.12 |  | 
LNMEEPPVEEPEPKPDRLLVLKVL [SLC19A2] | 3.5 ± 0.56 | 3.8 ± 0.25 |  | 
LNSEQAEQLERINDALSCEYECRR [FAM98B] | 4.54 ± 0.29 | 4.66 ± 0.11 |  | 
LPDNYEIIDSSLEDITYVLKPTFT [USP39] | 2.87 ± 0.39 | 2.8 ± 0.47 |  | 
LPEAPPKKFLTLGSKFRYSGRTQA [EPB41L3] | 3 ± 0.28 | 3.18 ± 0.39 |  | 
LPPEALTAPSGGQWGAEPEGSCYQ [RNF208] | 4.73 ± 0.42 | 4.73 ± 0.078 |  | 
LPRRPRKGSSELGFPRVAPEDEVI [RNF208] | 4.37 ± 0.23 | 4.33 ± 0.15 |  | 
LPTITSELSGAPRCHTVPCAGSTA [PXN] | 3.86 ± 0.34 | 3.83 ± 0.27 |  | 
LPVGGRLPGPTRPVLGRRAVGGRL [HAGHL] | 3.983 ± 0.03 | 4.24 ± 0.64 |  | 
LQHEERETRQKKLEVAMEEEGLAD [STK38L] | 5.59 ± 0.28 | 5.56 ± 0.11 |  | 
LQHGDQLSICFTCFKAAFLDFKDL [TEX19] | 2.89 ± 0.52 | 2.51 ± 0.36 |  | 
LQKDEYRPDKALSEGDLKNAIRVH [PSD2] | 4.56 ± 0.055 | 4.58 ± 0.16 |  | 
LQMEFKAVQQVQRLPFLSSSNLSL [POMP] | 2.15 ± 0.22 | 2.16 ± 0.17 |  | 
LRAFVNSQIQGHKEMSKVWNDLRP [SNX8] | 2.39 ± 0.21 | 2.62 ± 0.27 |  | 
LRGPRERAPSERSGPAASEHSHRS [DVL3] | 5.14 ± 0.3 | 5.34 ± 0.057 |  | 
LRKIIDFIYTAKLSLNMDNLQDTL [KLHL13] | 2.79 ± 0.63 | 2.44 ± 0.78 |  | 
LRQQCAQVLRNNPDALSDVGEVPY [ELOA2] | 3.88 ± 0.21 | 3.93 ± 0.16 |  | 
LRQRRPLRPQVVTDDDGQAPEAKD [APMAP] | 5.43 ± 0.16 | 5.52 ± 0.12 |  | 
